Molecular target: DBD-TSSK2 (myc tagged): human TSSK2 ORF fused with the Gal4 DNA-binding domain (pGBK-TSSK2) (human)
Test: cell-based or functional assay

alpha-galactosidase activity as percentage of full length TSKS (% reduction against full length TSKS)	alpha-galactosidase activity as percentage of full length TSKS (% of full length TSKS)	Substance
75	–	TSKS deletion mutant lacking the carboxyl terminus and second coiled-coil region, fused with the Gal4 activation domain (pGAD) (from UniProt P04386 768-881)
–	5	TSKS deletion mutant lacking the first 48 amino acids, fused with the Gal4 activation domain (pGAD) (from UniProt Q9UJT2 49-592)

Source: patent US20080274117A1
